Positions count from the first letter of the chain named.
T1: ARHGAP21, Q5T5U3
T1 sequence (Q5T5U3 45-169, limits assumed, looked up): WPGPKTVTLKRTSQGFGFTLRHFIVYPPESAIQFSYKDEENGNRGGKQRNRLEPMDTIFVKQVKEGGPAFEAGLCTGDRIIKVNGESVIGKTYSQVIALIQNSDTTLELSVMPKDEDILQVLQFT

T2: ARHGEF11, O15085
T2 sequence (O15085 42-136, limits assumed, looked up): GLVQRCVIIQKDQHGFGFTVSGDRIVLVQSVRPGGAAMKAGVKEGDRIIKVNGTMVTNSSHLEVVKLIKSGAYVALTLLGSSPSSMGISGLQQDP

T3: DFNB31_3, Q9P202
T3 sequence (Q9P202 811-907, limits assumed, looked up): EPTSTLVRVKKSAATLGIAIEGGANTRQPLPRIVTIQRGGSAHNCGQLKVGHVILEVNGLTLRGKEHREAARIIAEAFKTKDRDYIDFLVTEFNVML

T4: FRMPD1, Q5SYB0
T4 sequence (Q5SYB0 52-145, limits assumed, looked up): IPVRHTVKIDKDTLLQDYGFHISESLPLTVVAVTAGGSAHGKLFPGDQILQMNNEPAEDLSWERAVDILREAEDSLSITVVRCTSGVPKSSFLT

T5: GRIP1_5, Q9Y3R0
T5 sequence (Q9Y3R0 568-668, limits assumed, looked up): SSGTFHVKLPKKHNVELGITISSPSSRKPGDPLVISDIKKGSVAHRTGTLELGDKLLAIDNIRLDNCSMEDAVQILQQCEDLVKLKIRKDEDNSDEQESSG

T6: LIN7B, Q9HAP6
T6 sequence (Q9HAP6 88-185, limits assumed, looked up): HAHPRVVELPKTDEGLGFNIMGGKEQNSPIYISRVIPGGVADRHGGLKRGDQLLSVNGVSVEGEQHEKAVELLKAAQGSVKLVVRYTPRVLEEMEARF

T7: LIN7C, Q9NUP9
T7 sequence (Q9NUP9 88-185, limits assumed, looked up): T6 sequence (Q9HAP6 88-185, limits assumed, looked up) with A2S, D13E, V35I, V40I, Q65H, S79K, R89K, A96S

T8: MPP2, Q14168
T8 sequence (Q14168 180-250, limits assumed, looked up): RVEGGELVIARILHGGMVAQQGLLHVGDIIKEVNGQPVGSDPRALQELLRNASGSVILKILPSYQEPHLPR

T9: NHERF3_3, Q5T2W1
T9 sequence (Q5T2W1 238-333, limits assumed, looked up): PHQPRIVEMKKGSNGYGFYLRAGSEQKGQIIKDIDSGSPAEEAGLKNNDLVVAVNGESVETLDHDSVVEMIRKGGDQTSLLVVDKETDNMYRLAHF

T10: PARD3B_1, Q8TEW8
T10 sequence (Q8TEW8 196-299, limits assumed, looked up): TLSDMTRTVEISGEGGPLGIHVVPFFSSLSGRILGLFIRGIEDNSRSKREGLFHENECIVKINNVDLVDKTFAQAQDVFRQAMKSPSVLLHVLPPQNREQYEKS

T11: PCLO, Q9Y6V0
T11 sequence (Q9Y6V0 4491-4600, limits assumed, looked up): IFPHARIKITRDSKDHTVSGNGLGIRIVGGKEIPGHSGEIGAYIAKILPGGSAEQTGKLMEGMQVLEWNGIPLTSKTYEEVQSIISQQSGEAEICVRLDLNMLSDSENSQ

T12: PTPN13_1, Q12923
T12 sequence (Q12923 1088-1188, limits assumed, looked up): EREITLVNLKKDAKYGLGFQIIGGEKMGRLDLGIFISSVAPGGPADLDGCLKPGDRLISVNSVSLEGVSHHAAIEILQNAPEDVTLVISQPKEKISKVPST


Legend:
Assay in all cases: holdup assay
Design in all cases: key: below the threshold = too weak to quantify, mostly under pKd 3.1 to 4
Conditions in all cases: plain residues with an end cap or a label only (N-terminal biotin on a linker: ado-ado)
ARHGAP21, Q5T5U3 = molecular target: T1, ARHGAP21, Q5T5U3
ARHGEF11, O15085 = molecular target: T2, ARHGEF11, O15085
DFNB31_3, Q9P202 = molecular target: T3, DFNB31_3, Q9P202
DLG4_2, P78352 = molecular target: DLG4_2, P78352
FRMPD1, Q5SYB0 = molecular target: T4, FRMPD1, Q5SYB0
GIPC2, Q8TF65 = molecular target: GIPC2, Q8TF65
GRID2IP_2, A4D2P6 = molecular target: GRID2IP_2, A4D2P6
GRIP1_5, Q9Y3R0 = molecular target: T5, GRIP1_5, Q9Y3R0
GRIP2_4, Q9C0E4 = molecular target: GRIP2_4, Q9C0E4
IL16_3, Q14005 = molecular target: IL16_3, Q14005
Inadl_10, Q8NI35 = molecular target: Inadl_10, Q8NI35
Inadl_8, Q8NI35 = molecular target: Inadl_8, Q8NI35
LIN7B, Q9HAP6 = molecular target: T6, LIN7B, Q9HAP6
LIN7C, Q9NUP9 = molecular target: T7, LIN7C, Q9NUP9
LNX1_1, Q8TBB1 = molecular target: LNX1_1, Q8TBB1
MAGI2_4, Q86UL8 = molecular target: MAGI2_4, Q86UL8
MPP2, Q14168 = molecular target: T8, MPP2, Q14168
NHERF3_3, Q5T2W1 = molecular target: T9, NHERF3_3, Q5T2W1
NHERF4_2, Q86UT5 = molecular target: NHERF4_2, Q86UT5
NOS1, P29475 = molecular target: NOS1, P29475
PARD3B_1, Q8TEW8 = molecular target: T10, PARD3B_1, Q8TEW8
PARD3_3, Q8TEW0 = molecular target: PARD3_3, Q8TEW0
PCLO, Q9Y6V0 = molecular target: T11, PCLO, Q9Y6V0
PTPN13_1, Q12923 = molecular target: T12, PTPN13_1, Q12923

Chain of IL16_3, Q14005 (Q14005 1107-1207): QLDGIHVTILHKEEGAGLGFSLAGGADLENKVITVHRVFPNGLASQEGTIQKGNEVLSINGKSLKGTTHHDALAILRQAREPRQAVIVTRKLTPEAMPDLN
Chain of MAGI2_4, Q86UL8 (Q86UL8 772-865): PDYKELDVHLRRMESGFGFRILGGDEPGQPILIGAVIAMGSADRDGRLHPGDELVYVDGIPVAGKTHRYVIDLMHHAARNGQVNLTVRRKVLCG
Chain of GRID2IP_2, A4D2P6 (A4D2P6 272-370): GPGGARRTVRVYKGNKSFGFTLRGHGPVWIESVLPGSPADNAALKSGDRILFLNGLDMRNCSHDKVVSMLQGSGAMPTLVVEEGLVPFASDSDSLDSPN
Chain of NOS1, P29475 (P29475 9-101): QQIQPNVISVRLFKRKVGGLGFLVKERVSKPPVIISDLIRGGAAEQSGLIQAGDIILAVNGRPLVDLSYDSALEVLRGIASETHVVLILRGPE
Chain of PARD3_3, Q8TEW0 (Q8TEW0 582-685): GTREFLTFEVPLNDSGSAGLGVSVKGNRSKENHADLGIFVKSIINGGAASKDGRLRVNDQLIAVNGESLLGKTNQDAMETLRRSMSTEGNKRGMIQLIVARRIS
Chain of GIPC2, Q8TF65 (Q8TF65 112-203): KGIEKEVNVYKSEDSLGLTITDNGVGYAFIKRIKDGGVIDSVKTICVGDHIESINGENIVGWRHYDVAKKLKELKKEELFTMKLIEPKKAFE
Chain of GRIP2_4, Q9C0E4 (Q9C0E4 446-548): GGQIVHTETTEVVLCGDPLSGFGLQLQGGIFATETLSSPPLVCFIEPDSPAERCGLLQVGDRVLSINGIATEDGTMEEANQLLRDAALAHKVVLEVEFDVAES
Chain of Inadl_10, Q8NI35 (Q8NI35 1673-1763): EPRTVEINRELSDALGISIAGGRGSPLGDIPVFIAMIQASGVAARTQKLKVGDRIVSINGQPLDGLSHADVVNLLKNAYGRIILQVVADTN
Chain of Inadl_8, Q8NI35 (Q8NI35 1425-1530): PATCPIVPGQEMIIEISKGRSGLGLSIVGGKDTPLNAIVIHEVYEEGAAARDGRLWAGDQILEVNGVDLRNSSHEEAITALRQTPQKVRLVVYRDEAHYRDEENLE
Chain of DLG4_2, P78352 (P78352 155-259): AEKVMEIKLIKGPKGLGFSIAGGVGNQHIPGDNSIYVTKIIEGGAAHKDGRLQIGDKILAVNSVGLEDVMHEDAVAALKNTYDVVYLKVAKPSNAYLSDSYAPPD
Chain of LNX1_1, Q8TBB1 (Q8TBB1 261-371): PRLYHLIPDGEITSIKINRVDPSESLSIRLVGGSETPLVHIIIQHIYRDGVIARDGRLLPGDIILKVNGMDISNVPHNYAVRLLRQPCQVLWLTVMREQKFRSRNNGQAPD
Chain of NHERF4_2, Q86UT5 (Q86UT5 220-308): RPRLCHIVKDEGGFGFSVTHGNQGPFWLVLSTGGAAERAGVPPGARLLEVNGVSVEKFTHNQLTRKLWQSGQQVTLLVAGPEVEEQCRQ

Row | Binder | pKd (ARHGAP21, Q5T5U3) | pKd (ARHGEF11, O15085) | pKd (DFNB31_3, Q9P202) | pKd (DLG4_2, P78352) | pKd (FRMPD1, Q5SYB0) | pKd (GIPC2, Q8TF65) | pKd (GRID2IP_2, A4D2P6) | pKd (GRIP1_5, Q9Y3R0) | pKd (GRIP2_4, Q9C0E4) | pKd (IL16_3, Q14005) | pKd (Inadl_10, Q8NI35) | pKd (Inadl_8, Q8NI35) | pKd (LIN7B, Q9HAP6) | pKd (LIN7C, Q9NUP9) | pKd (LNX1_1, Q8TBB1) | pKd (MAGI2_4, Q86UL8) | pKd (MPP2, Q14168) | pKd (NHERF3_3, Q5T2W1) | pKd (NHERF4_2, Q86UT5) | pKd (NOS1, P29475) | further results
1 | QFTLRHWLKV [SLC6A3, Q01959] | 4.09 | below the threshold | below the threshold | below the threshold | 3.57 | below the threshold | below the threshold | below the threshold | below the threshold | below the threshold | below the threshold | below the threshold | below the threshold | below the threshold | below the threshold | 3.5 | 3.87 | below the threshold | below the threshold | below the threshold | pKd (PARD3B_1, Q8TEW8): 3.87; pKd (PARD3_3, Q8TEW0): below the threshold; pKd (PCLO, Q9Y6V0): below the threshold; pKd (PTPN13_1, Q12923): below the threshold
2 | NASRTRITFV [MCM7, P33993] | below the threshold | 4.35 | 4.74 | 5.12 | below the threshold | below the threshold | 4.97 | below the threshold | below the threshold | below the threshold | below the threshold | 5.05 | 3.9 | below the threshold | 4.3 | 3.82 | below the threshold | 3.53 | below the threshold | 3.84 | pKd (PARD3B_1, Q8TEW8): below the threshold; pKd (PARD3_3, Q8TEW0): below the threshold; pKd (PCLO, Q9Y6V0): below the threshold; pKd (PTPN13_1, Q12923): below the threshold
3 | PASAKGPLGV [CLDN19, Q8N6F1] | 3.98 | below the threshold | below the threshold | below the threshold | below the threshold | below the threshold | below the threshold | below the threshold | below the threshold | below the threshold | below the threshold | below the threshold | below the threshold | below the threshold | below the threshold | below the threshold | below the threshold | below the threshold | below the threshold | below the threshold | pKd (PARD3B_1, Q8TEW8): below the threshold; pKd (PARD3_3, Q8TEW0): below the threshold; pKd (PCLO, Q9Y6V0): below the threshold; pKd (PTPN13_1, Q12923): below the threshold
4 | PAPGQHTTQI [STK16, O75716] | below the threshold | below the threshold | 4.23 | 3.87 | below the threshold | below the threshold | 3.98 | below the threshold | below the threshold | below the threshold | below the threshold | below the threshold | 3.92 | 3.98 | below the threshold | 3.5 | below the threshold | below the threshold | below the threshold | 3.69 | pKd (PARD3B_1, Q8TEW8): 3.69; pKd (PARD3_3, Q8TEW0): below the threshold; pKd (PCLO, Q9Y6V0): below the threshold; pKd (PTPN13_1, Q12923): below the threshold
5 | QSPPNIYYKV [EFNB3, Q15768] | below the threshold | 4.15 | 4.1 | 3.54 | below the threshold | below the threshold | below the threshold | below the threshold | below the threshold | below the threshold | below the threshold | below the threshold | below the threshold | below the threshold | 3.86 | 3.69 | below the threshold | below the threshold | below the threshold | 3.53 | pKd (PARD3B_1, Q8TEW8): 3.77; pKd (PARD3_3, Q8TEW0): below the threshold; pKd (PCLO, Q9Y6V0): below the threshold; pKd (PTPN13_1, Q12923): below the threshold
6 | DSATVRTYSC [PPFIA1, Q13136] | below the threshold | 3.66 | 3.51 | below the threshold | below the threshold | below the threshold | 3.49 | below the threshold | below the threshold | below the threshold | below the threshold | below the threshold | 3.7 | below the threshold | below the threshold | below the threshold | below the threshold | below the threshold | below the threshold | below the threshold | pKd (PARD3B_1, Q8TEW8): 3.57; pKd (PARD3_3, Q8TEW0): below the threshold; pKd (PCLO, Q9Y6V0): below the threshold; pKd (PTPN13_1, Q12923): below the threshold
